Source: patent US20120014957A1 (AbbVie / Abbott, published 2012)

Tests used:
[1] = target: T1, NRP1 on cells (UniProt O14786 22-923, limits assumed); assay: flow cytometry on cells, antibody at 2 ug/mL
T1 construct: whole, on cells
Method: (§1) Stable cell lines overexpressing a cell-surface antigen of interest or human tumor cell lines were harvested from tissue culture flasks and resuspended in phosphate buffered saline (PBS) containing 5% fetal bovine serum (PBS/FBS). Prior to staining, human tumor cells were incubated on ice with (100 μl) human IgG at 5 μg/ml in PBS/FCS. 1−5×10⁵ cells were incubated with antibody or DVD-Ig (2 μg/mL) in PBS/FBS for 30-60 minutes on ice. Cells were washed twice and 100 μl of F(ab′)2 goat anti human IgG, Fcγ-phycoerythrin (1:200 dilution in PBS) (Jackson ImmunoResearch, West Grove, Pa., Cat. #109-116-170) was added. After a 30 minute incubation on ice, cells were washed twice and resuspended in PBS/FBS. Fluorescence was measured using a Becton Dickinson FACSCalibur (Becton Dickinson, San Jose, Calif.).
(§2) The geometric mean is the n root of the multiplication product of n fluorescent signals (a1×a2×a3 . . . an). With log-transformed data the geometric mean is used to normalize the weighting of the data distribution.

[2] = target: T2, CD-20 on cells (UniProt P11836 1-297, limits assumed); assay: flow cytometry on cells, DVD-Ig at 2 ug/mL
T2 construct: whole, on cells
T2 sequence (looked up): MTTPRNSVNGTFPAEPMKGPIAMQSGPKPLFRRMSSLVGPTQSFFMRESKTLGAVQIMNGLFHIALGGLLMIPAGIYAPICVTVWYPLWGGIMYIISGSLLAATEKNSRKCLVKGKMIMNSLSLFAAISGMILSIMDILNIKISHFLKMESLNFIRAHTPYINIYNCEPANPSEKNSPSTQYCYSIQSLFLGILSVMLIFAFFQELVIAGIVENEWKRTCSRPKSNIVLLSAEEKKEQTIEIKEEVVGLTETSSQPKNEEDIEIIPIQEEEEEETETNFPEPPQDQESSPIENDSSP
Method: as §1, §2

[3] = target: T1, NRP1 on cells; assay: flow cytometry on cells, DVD-Ig at 2 ug/mL
Method: as §1, §2

[4] = target: Recombinant Human β-NGF (human, UniProt P01138 122-241); assay: cell-based or functional assay

B1: AB016 (antibody, V domains shown)
VH: EVQLVESGGGLVQPGGSLRLSCAASGFSFSSEPISWVRQAPGKGLEWVSSITGKNGYTYYADSVKGRFTISADTSKNTAYLQMNSLRAEDTAVYYCARWGKKVYGMDVWGQGTLVTVSS
VL: DIQMTQSPSSLSASVGDRVTITCRASQSISSYLAWYQQKPGKAPKLLIYGASSRASGVPSRFSGSGSGTDFTLTISSLQPEDFATYYCQQYMSVPITFGQGTKVEIKR
notes: Parent antibody; also called NRP1
[1]
  FACS Geometric Mean: 338

B2: DVD1336 (bispecific antibody, human IgG1, kappa)
heavy: not shown
light: QIVLSQSPAILSPSPGEKVTMTCRASSSVSYIHWFQQKPGSSPKPWIYATSNLASGVPVRFSGSGSGTSYSLTISRVEAEDAATYYCQQWTSNPPTFGGGTKLEIKRTVAAPDIQMTQSPSSLSASVGDRVTITCRASEDIYNALAWYQQKPGKAPKLLIYNTDTLHTGVPSRFSGSGSGTDYTLTISSLQPEDFATYFCQHYFHYPRTFGQGTKVEIKRTVAAPSVFIFPPSDEQLKSGTASVVCLLNNFYPREAKVQWKVDNALQSGNSQESVTEQDSKDSTYSLSSTLTLSKADYEKHKVYACEVTHQGLSSPVTKSFNRGEC
notes: DVD-Ig; also called DVD1336H; DVD1336L
[2]
  FACS Geometric Mean N-terminal: 754

B3: DVD1352 (bispecific antibody, human IgG1, kappa)
heavy: not shown
light: DIQMTQSPSSLSASVGDRVTITCRASQSISSYLAWYQQKPGKAPKLLIYGASSRASGVPSRFSGSGSGTDFTLTISSLQPEDFATYYCQQYMSVPITFGQGTKVEIKRTVAAPDIQMTQSPSSLSASVGDRVTITCRASEDIYNALAWYQQKPGKAPKLLIYNTDTLHTGVPSRFSGSGSGTDYTLTISSLQPEDFATYFCQHYFHYPRTFGQGTKVEIKRTVAAPSVFIFPPSDEQLKSGTASVVCLLNNFYPREAKVQWKVDNALQSGNSQESVTEQDSKDSTYSLSSTLTLSKADYEKHKVYACEVTHQGLSSPVTKSFNRGEC
notes: DVD-Ig; also called DVD1352H; DVD1352L
[3]
  FACS Geometric Mean N-terminal: 42
[4]
  C-Terminal VD NGF Inhibition Assay EC50: 0.226 nM
